The source of these data is US20150329637A1 (NUMAB, published 2015).

The Kd is a measure of binding affinity in units of concentration. The low end stands for higher affinity, the high end for lower affinity. Usually koff stands for a measure of how fast the partners let go of each other. The term kon denotes a measure of how fast the partners come together.

The target of assay [1] is T1, Human IL23R extracellular domain (ECD) (human, UniProt Q5VWK5 24-355).
T1 construct: extracellular domain; also called human IL23R ECD
T1 sequence (looked up): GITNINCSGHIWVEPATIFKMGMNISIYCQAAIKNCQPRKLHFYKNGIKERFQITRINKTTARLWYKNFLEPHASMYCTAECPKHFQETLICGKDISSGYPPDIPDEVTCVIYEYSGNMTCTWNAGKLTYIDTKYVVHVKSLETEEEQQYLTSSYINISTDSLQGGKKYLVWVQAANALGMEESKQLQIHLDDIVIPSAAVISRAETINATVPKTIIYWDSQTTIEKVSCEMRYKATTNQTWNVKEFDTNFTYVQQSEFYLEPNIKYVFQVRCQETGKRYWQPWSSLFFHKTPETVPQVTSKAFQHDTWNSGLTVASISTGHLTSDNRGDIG
The assay can be described thus: SPR; human IL23R ECD immobilised, scDb injected. The method, then: [000154] For affinity measurements to IL23R, human IL23R extracellular domain (produced on request by Trenzyme) was immobilized on a sensor chip (SPR-2 Affinity Sensor High Capacity Amine, Sierra Sensors) using a standard amine-coupling procedure. Two-fold serial dilutions of scDbs ranging from 90 to 5.6 nM were injected into the flow cells for 3 min and dissociation of the protein from the immobilized IL23R on the sensor chip was allowed to proceed for 720 sec. After each injection cycle, surfaces were regenerated with a 1 min injection of 10 mM Glycine-HCl pH 2.0. The apparent dissociation (kd) and association (ka) rate constants and the apparent dissociation equilibrium constant (KD) are calculated with the MASS-1 analysis software (Analyzer, Sierra Sensors) using one-to-one Langmuir binding model.
(In general: SPR reads the build-up and loss of mass on a sensor chip optically.)

Assay [2] deals with T2, human IL23R on IL-23R expressing cell lines (DLD-1, SW480, TF-1) (human, UniProt Q5VWK5 24-629).
T2 sequence (looked up): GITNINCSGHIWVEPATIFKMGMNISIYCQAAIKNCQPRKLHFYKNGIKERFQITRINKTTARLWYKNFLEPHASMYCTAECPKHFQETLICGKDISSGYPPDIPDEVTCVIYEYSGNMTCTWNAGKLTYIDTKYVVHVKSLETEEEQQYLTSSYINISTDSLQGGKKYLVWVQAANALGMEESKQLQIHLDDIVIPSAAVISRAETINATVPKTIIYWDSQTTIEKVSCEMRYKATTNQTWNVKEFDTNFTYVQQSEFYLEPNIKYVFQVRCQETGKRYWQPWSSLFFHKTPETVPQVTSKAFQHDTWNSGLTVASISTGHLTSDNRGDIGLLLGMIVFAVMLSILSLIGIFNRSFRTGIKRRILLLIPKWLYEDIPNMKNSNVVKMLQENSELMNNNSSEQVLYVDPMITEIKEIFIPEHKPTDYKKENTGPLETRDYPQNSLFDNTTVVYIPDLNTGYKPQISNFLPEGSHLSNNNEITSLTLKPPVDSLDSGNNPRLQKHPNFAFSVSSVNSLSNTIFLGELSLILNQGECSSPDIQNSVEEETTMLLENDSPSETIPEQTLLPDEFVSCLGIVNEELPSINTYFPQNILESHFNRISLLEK
The assay can be described thus: cell-based or functional assay.

Assay [3] addresses T3, human heterodimeric single-chain CD3γδ extracellular domain (produced in-house) (human).
T3 chain: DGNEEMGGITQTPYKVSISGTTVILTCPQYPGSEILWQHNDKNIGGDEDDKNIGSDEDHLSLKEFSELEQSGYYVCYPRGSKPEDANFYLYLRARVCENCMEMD
The assay can be described thus: SPR; human single-chain CD3 ECD immobilised, scDb injected.

B1: PRO165 (bispecific antibody)
chain: DIQMTQSPSSLSASVGDRVTITCQASENIYSFLAWYQQKPGKAPKLLIYSASKLAAGVPSRFSGSGSGTDFTLTISSLQPEDFATYYCQQTNRYSNPDIYNVFGQGTKLTVLGGGGGSEVQLVESGGGLVQPGGSLRLSCAASGFPLSSYAMIWVRQAPGKGLEWIGMILRAGNIYYASWVKGRFTISRDNSKNTVYLQMNSLRAEDTAVYYCARRHYNREGYPIGIGDLWGQGTLVTVSSGGGGSGGGGSGGGGSGGGGSDIQMTQSPSSLSASVGDRVTITCQSSESVYNNKRLSWYQQKPGKAPKLLIYTASSLASGVPSRFSGSGSGTDFTLTISSLQPEDFATYYCQGEFTCSNADCFTFGQGTKLTVLGGGGGSEVQLVESGGGLVQPGGSLRLSCAASGIDFNSNYYMCWVRQAPGKGLEWIGCIYVGSHVNTYYANWAKGRFTISRDNSKNTVYLQMNSLRAEDTAVYYCATSGSSVLYFKFWGQGTLVTVSS
notes: also called anti-IL23RxCD3ε scDb
For the molecule B1, binding in assay [1] was characterised by a dissociation constant (Kd) of 0.000182 µM. In assay [2], the “EC50 of specific target cell lysis [nM], DLD-1” value came out at 45.4 nM; the “EC50 of specific target cell lysis [nM], SW-480” value was 71.7 nM; the “EC50 of specific target cell lysis [nM], TF-1” value is 39.8 nM. In assay [3], this molecule returned a Kd of 0.0116 µM, a koff of 0.00126 s⁻¹ and a kon of 109000 M⁻¹ s⁻¹.
